Experimental data taken from a protein production outcome set (Wang et al. 2014).

Assay: label from the status in PepcDB records

| Sequence | protein production |
| --- | --- |
| MPPIIKRRVMRKIIIASQNPAKVNAVRSAFSTVFPDQEWEFIGVSVPSEVADQPMSDEETKQGALNRVRNAKQRHPGAEYYVGLEAGIEENKTFAWMIVESDQQRGESRSACLMLPPLVLERLRQAKELGDVMDEVFGTENIKQKGGAIGLLTRHHLTRSTVYHQALILALIPFINPEHYPSA | not failed |
| PVAGPYITFTDAVNETTIMLKWMYIPASNNNTPIHGFYIYYRPTDSDNDSDYKKDMVEGDRYWHSISHLQPETSYDIKMQCFNEGGESEFSNVMICETKAR | not failed |
| MDSGESGPQQWAGVVKVNDRMGYVTFTDAAGTELIPTNTIPVTLNARMAYIYCQVDEGQDLSTNPKSIKITLLADPTGIDATAITTPKVGESGDVTTNAPVGSLSFVSGYSTVAPFQFSENTIVLPVLYRVKNVTTTEDIKNELAKHTFTLVCYTDDIKSGDTILKLYLRYKVEDEPAAIAERATRTSSFKAYEISQILREYTLKSGQTKPAKITIVAQQNEYNNKLEDTSTIEKVYEIEYKTAE | not failed |
| MKLIAAGLTLIFLGFILLFLGVVLQVQTPQTTTSSSPQFAGLVLLGPIPIAFGNVPPSVLSNLIIVGVVFTIIMLIIYLIMFIIGRKTTRAPF | failed |
| MISTMYSEETSERSSFPSKRHLEDRTENREEHSKRLRPTSFRDQKVTIPQGWLDCPRFGQHIGLIIPSKVPLSESYNDCVPSGKRYNFKQWLTKIGLVIDLTNTTRYYHPNTELRQNRIEYVKIRCSGRDSVPDNVSVNTFVHEVTQFENHNLSEKYLLVHCTHGHNRTGFMIVHYLMRSRPMMSVTQALKIFSDARPPGIYKPDYIDALYRFYHEVKPGSVICPPTPEWKRSEEAKFDDDDNALSYREVQGNNQEENVQLSNDDVLGDEIPYDQEVSYQNSINHMLNISMQFPGSHPLSLGREALQLLRQRYYYATWKADGTRYMMLLTRDGCYLVNREYRFRRVQMRFPCEYEPSDYKVHHYTLLDGEMVVDTIKEGETQRHVRRYLVYDLVAINGQFVAERPFSERWNILERELIKPRNDEKKVRDHWYRYDKEPFGVRIKAFCLLSAVEKKVFNELIPLLSHESDGLIFQGWDNPYVFGPNKDLLKWKFVETLDFLFDMDKYGRQMLFLQERGRMKLMEGFAVEFRGDGWDNDLASYCGKIVECSWDKEKKVWVSLRIRVDKSKPNGIGTGRSVIKCIEDDLTKEVLLKEIKEIILLPMYVERIENDTKEAARRKHGNRKG | failed |
| MEGFHMVSDMCPQITGWRIYVFVVRVFKNVISPNVFELGLILADYAGSNSRIEATVDRRLAPFYEDRFVENEWKTITSFLVRKATDSVRATKHEYGILFMDRTVVVEAPPRSPPVPDFDFTPFDYILEKSAYKNVLVDVVGALVDVGGLTTDYYGLKMSFKIKDRYNEVLECEARNKQAEYLDGYFKSLGKGNFVVALSFWRLTELSNPKLASHGAISKVVANPDIPEVADIAMVVF | failed |
| MSTSLTIRLVAEADWPALHALDQIIWTKKNTPAEIQPLSLAAYQEKMKDETIFVAISGQQLAGFIEVHPPTSLAAHQKQWLLSIGVSPDFQDQGIGGSLLSYIKDMAEISGIHKLSLRVMATNQEAIRFYEKHGFVQEAHFKEEFYINGHYCDDYQYAYFIEK | not failed |
| MRTLILAAALALAPLSAAAQDRAQTLADIKAEIAALQGQFNDLKRELVSTGAATSGAAGGSALQRMDAMEAAIAQVTAKAESLELKINRVVSDGSNRVGDLEFRVCELEEGCDIGAIGETKPLGGEASAAPAPTPAPAPAADPAGTFAVNEKADFDRAQEVLGQGDFRTAADLFKTFAETYTGGQLTYEAHYLRGEALSRLGETANAARAYLESFSGDPDGPRAPEALLKLGRALGDLRQTPEACVTLAEVGTRFPGSPSAAEAATTMQGLGCS | failed |
| MTKHRWSPVSSPPSRKPENVQVINLLPVAAGIIAILLALSFFGQVGAALLAITLALILATALNPVARWLERWMPRPAAGALTVLLVVLALVLLGLVAVPPLVSQGSKLTSSLPTSIPELEAQINALIDRYPAINSVLTEASVHRLIQQAGSFAANAAKGLPNIVSTFVGGVFMGLVMLVMVVFVLSNPVPLVNGVLGAVPPRHRLPAARALAQILKQLGGWGRATVLVMLVTGSCTALGLMLLKVDNWLIFGILAALGELVPNIGPIVATIPSVLFAAADDPQKGLYVALFVLVFQQVSGFVLGPFLLGGAGKLHPLSVTVGVLLFGSVFGIVGAFLTVPFLIIIKAIYQEFYLQDAPDIPDAVAMALISGKVEEQLDREEEQREAIDGQLQAARDEELQRQLEEGDLDLAAVLEHPESEPGNETTVEHSQTVISPTAQNPEQK | failed |
| MKKVILLGATSNISKYLIPRLLAKNDVELTLFARQATRRLHQYAAQSQVTLTNGNWNNSADLTAAIAGQDIVYLATGHFTTANQNVVDAMKQNGVERLIVAGGLGIYDEVAGKFGIWNAQMMGDYTEIKRAAAVIDNSGLNYTFLRMAWLYNNDQHTDYKVIPQGMPFKDTQVTRQAVADLITEIIHNPQLYQRSSIGVAEPNTAWNKPGFY | failed |
| MITTRTARQCGQADYGWLQARYTFSFGHYFDPKLLGYASLRVLNQEVLAPGAAFQPRTYPKVDILNVILDGEAEYRDSEGNHVQASAGEALLLSTQPGVSYSEHNLSKDKPLTRMQLWLDACPQRENPLIQKLALNMGKQQLIASPEGAMGSLQLRQQVWLHHIVLDKGESANFQLHGPRAYLQSIHGKFHALTHHEEKAALTCGDGAFIRDEANITLVADSPLRALLIDLPV | not failed |
| MVIRVTERRVKLASIISYDFLFLVLLSGLLNLIITIFRERLLYVLSSFFQYIVSNPSVALGDALGFIFVLQALLLGLFIGGIVILSISFTINLTRIRSEYEEGVPLSTILRSRIITSSRLGIIANWISERSKRYINASADLESPTEVGVRYVAYFLVSLLVVIPVSLALSIALLSPLPFLLIFFPLTFIFYPEQKYKSRAREIRDDIQDEIPFFVTLITIINASGTTIYEGMRKILQFPIFKAMKKEALLIIRDIEFFGKSPLDALEHRSRLTLNRDYSWFLAGYSSIIRSGGDIEAYLFQKAREFLNWLQFRWRFYSERTSFLGELIVILFLIFPMFLIALAFFTSGAVISFLLIIPILFGTILYTITANNRPRYMDSIGLTKLQLLIGFIAALLTAGVIEIFLDEIYYAIGLGLLSFSLASTIFMYNQIREINDVENSLPQFLRDITEFRKIGYDLSRAIKTLAEEKRYRREFNRVLNEITKQDSMGIPITRAKINTRSWLGKFSLTTVQILIESGAVRPDLLEYLTEFTLNFIQSKKEAFSRMRAYQVLGILTPLLLIATILIAIVIIDSFTIVTLPTNTVGLPQFPNIISQFILSPVILAEMFIFILMSTFAIGLLVTKALYGTVQYMIMPAIGLTLAVLSIHFFSVIEPIILKFFSI | failed |
| AEEKKEDEFKTIKIEKLDGGITKLVLNRPDRLNTISPEVLDEIDRAITQLWNDKDTRVIVITGAGDRAFSAGADLGGSIITHPFDFLEHNRKGERVFTRLREIPKPVIAAINGYALGGGLEIAMNCDIRLAKKSAVLGLPEVGLGILPGWSGTQRLVKLVGISRAMQLALTGERITAEEAERWGLVNKVFDDDKFEEEVMNYAKNIAERCAPISMALIKRLINKGGEVPMDIGLEWECTAAGLLFATEDMREGISAFLRKDKPQFKGR | failed |
| MEALKIALLGGGTVGSAFYNLVLERAEELSAFGVVPRFLGVLVRDPRKPRAIPQELLRAEPFDLLEADLVVEAMGGVEAPLRLVLPALEAGIPLITANKALLAEAWESLRPFAEEGLIYHEASVMAGTPALSFLETLRGSELLELHGILNGTTLYILQEMEKGRTYAEALLEAQRLGYAEADPTLDVEGIDAAHKLTLLARLLVDPGFPFAEVEAQGIARLTPEVLQKAEARGERVRLVASLFGEGGRWRAAVAPRRLPQDHPLARARGNALWVRARPLGEAFVTGPGAGGGATASGLFADLLRFLSGAPGHLPAPRARPPLEEGSPWPGVE | failed |
| MAQQQGMDSALFERRLRPVYDNLEVGNNRKALQESEKLLRKHPNLLCARALKGLSLLRLGRYDESHGCLQTVAEEKPTDDSTLQVLSFCYREMEQLDKIVELYQHAVKQNPGNEELLAHLFISHVRVEDYKAQQAVALQLYKAQPKNAYYFWSVISVVFQGIRGPESALPEKRKIYLGLAQRMVDKHIKEGKMETEQEAFLYLHILKLQNKYQEAWEFLTGELCAKLYPGAPVSMKFELLKELGNWRELNELLQQLLDADRDRWDFYKEYIQSSFELLKLTPQGVENGDKDSLARCQEFLQRIIDSSERKKRGPYLARLELHQRMRAEQLPAEKLIGDFDEMVIEYFRLFGDKSCCTHDIALFLPSISMNQRQALASKLLLESGVTSTSLPKNKEQLQKHLCALQISRMCGSHMDLPADHLLAFYTALKLHYEHGRTTFGKKLLATEMGPSDAYALLAANVMYDLSRRENKSDHLFEALCLLQYVLRNSTSNFHVKLLSLKIYHLFGCQVGAQEMYEYLDIKQIQLDSMGYVHCQLLALGGRFSGNRNVYDATLKFFTNSYKERLEYIALTYRFCTFSKMEEFMNFKERLTNSLQYVACSVEAQICDLVSCYGNITQNLSAYVAMSIEPAEDRIAWHELSDNRDLGAIIRWDPLHEVDAAEERRESFDQEVEVLQVRSLMLRLFASFIDLYHGAGLKDSPAGAETATLELLRESWTGLFQRLRVMNYKPLAQKFLVNLLPTRLHLLLDMPYERFFDDLAQLVLDLQSGSAKLAEQCKRVGDNVIATMELCVQTINESNESNGIDGLWKRRGQQQKVAASLEMLSLYAFLLSVLNDKLQVSSKTKTKKKPVENKVDGPQPISEKERSQMLQELMRQLKHKFEACDTAIRSWKAPVLPRDLSSFMSDMSLKPEVEATLIGDVSATFKDSHELMVTELRNLLKDKIRMVAK | failed |
| AESLSGLSLKLVKKEPRQLELTWAGSRPRNPGGNLSYELHVLNQDEEWHQMVLEPRVLLTKLQPDTTYIVRVRTLTPLGPGPFSPDHEFRTSPP | not failed |
| MKTLVHLSDLHFGKTESQLVDAIAAEVRAVDSDLLVVSGDLTQRARKDEFLQARAFLDSLPGPRIVVPGNHDVPLWNVFARAMTPLSRYRRYIEADTDPFYADSEVAVVGINTARSLTIKDGRINVRQLKAATEKFAHMSDDITRIVVTHHPFEGRDLESDDGIVGRADLAMHAFSRSGVDIILSGHQHLHRAGSSARRYLIDGYAALLIQAGTAVSSRLRRAANSFNIIRIEHPRISVECRAWQPSQSGFETSASYSFRQGPGGWKPT | failed |
| MIYLLLGAVIITFLLWPRGRALLKGDGWRVGAGAAAIAAFAVAAYATIRGAWGTGIVLGVIGLWSVTEARRRPIVRREVVHPPKPELSLSEARAILGVGPEASLAEVKAAYNRLIQMAHPDKGGTEGLAAQLNAARDRLIKPRGSARVEP | failed |
| MFVHTKTKKKRKWQRKVFLLLLLFLLPIVSVLAFIVLFIGGGTAESHDVEATTGGVKLSAKQFADKTKLGISEEEAKNALAFADRLMSRHHFTAQATAGVLAVGFRESGFDVKAVNNSGGVAGFFQWSGWGSSVNGDRWKVASKRELTLEVEVDLMSTELDGRYADVVKKVGSATDEKQAAKDWSQYYEGVAVSDGQTKADKIESWATTICEALKSGGTNYAKVNNTGTSSTAIPQGWENISAFDGHAYEGSENYPQGQCTWYVYNRAKQLGVSFSPYMGNGGQWYQVQGYHSSHTPKAHTALSFVNGQAGSDPTYGHVAFVEAVKDDGSILISEMNVYGQPAMTVAYRTFDAETAKQFWYVEGK | failed |
| MEEITEGVNNMNLAVDTQKKNRIQVSNTKKPLFFYVNLAKRYMQQYTDVELSALGMAIATVVTVAEILKNNGFAVEKKIMTSTVDIKDDSRGRPVQKAKIEITLAKSEKFDELMAAANEEKEAAEAQEQN | failed |
| MSRELKLRIVSAIVMAAVILAATWYGGILFRIVAGLLAILIYYEWSTITRMSETNSTGNAWGWFAVAVIAGNTIFGESSLDLPLLSGFTLTAALFPVLRGKNWWLVGGIFYAGLSGISLAAIRGDELAGFASILFIFAVVWSTDILAYFVGRAIGGPKLAPSISPGKTWSGAVGGAVAAVIGGAAVSMAYHGRISLLLVGLALVLSVFSQIGDLFESFVKRRFQVKDSSHLIPGHGGFMDRVDGLVFACFTVFLIAFVHAAATGDVPGSGGGLLPGF | failed |
